Results on seven substances are retold here after article PMC3776215.

For the assay, the target named is Recombinant human urokinase-type plasminogen activator receptor (uPAR) (human) (UniProt Q03405). Briefly: SPR.
UniProt Q03405, sequence (Q03405 23-305): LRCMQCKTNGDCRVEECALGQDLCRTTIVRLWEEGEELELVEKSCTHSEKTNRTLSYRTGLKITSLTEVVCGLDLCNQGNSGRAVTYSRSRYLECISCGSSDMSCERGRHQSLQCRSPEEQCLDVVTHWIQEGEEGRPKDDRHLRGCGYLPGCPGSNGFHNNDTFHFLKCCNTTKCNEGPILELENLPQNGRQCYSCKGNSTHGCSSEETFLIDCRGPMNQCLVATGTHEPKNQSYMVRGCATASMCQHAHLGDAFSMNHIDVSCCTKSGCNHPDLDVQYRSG
As usually defined, the IC50 is the concentration at which inhibition is half-maximal. In general, kon refers to the second-order rate constant of association. With “AE105 (Asp-Cha-Phe-(D)Ser-(D)Arg-Tyr-Leu-Trp-Ser) (peptide)”, the IC50 turned out to be 6.7 nM and the kon turned out to be 620000 M⁻¹ s⁻¹.

What is called Kd is a measure of binding affinity in units of concentration. As usually defined, the koff is the rate constant with which the complex falls apart. Take CB-TE2A-AE105 (peptide): the IC50 came to 5.9 nM, the Kd is 7.7 nM and the koff was found to be 0.0046 s⁻¹.

Take CB-TE2A-AE105^mut (peptide): the IC50 is above 1000 nM.

As for CB-TE2A-PA-AE105 (peptide), the IC50 was 6.1 nM, the Kd was found to be 27 nM, the koff worked out at 0.0108 s⁻¹ and the on-rate (kon) came to 400000 M⁻¹ s⁻¹.

For CB-TE2A-PA-AE105^mut (peptide), the IC50 is above 1000 nM.

Turning to DOTA-AE105 (peptide), the IC50 turned out to be 6.7 nM, the Kd was 9.4 nM, the koff came to 0.0043 s⁻¹ and the kon was found to be 460000 M⁻¹ s⁻¹.

Consider DOTA-AE105^mut (peptide), for which the IC50 is above 1000 nM.
